Test results reported in the supplement of paper PMC7125110.
± gives the standard error. For some assays here: Fewer inactive variants are shown than the library holds.

B1: glmS ribozyme (parent)
chain: AUAAAAGCGCCAGAACUACAGAAAUGUAGUUGACGAGGAGGAGGUUUAUCGAAUUUUCGGCGGAUGCCUCCAAA

Legend:
Conditions in all cases: with glucosamine-6-phosphate
glucosamine-6-phosphate [1] = variants of: B1; test: kcat; higher = faster cleavage; RNA array
Outline: (§1)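 Tiles of sequenced MiSeq chips were imaged over ~14 h at 37 °C. On them, barcoded ribozyme variants had been transcribed in situ by E. coli RNA polymerase and were tracked via a hybridised Cy3 probe while glucosamine-6-phosphate (40 μM to 10 mM) in HEPES/KCl/Mg(OAc)2 buffer flowed in. Per-tile medians, normalised to baseline and to non-cleaving reference variants, were fit to one- or two-exponential decays for kobs, and weighted Michaelis–Menten fits gave kcat and KM.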

glucosamine-6-phosphate [2] = variants of: B1; test: self-cleavage kobs at 2500 uM GlcN6P; higher = faster cleavage; RNA array
Outline: as §1

glucosamine-6-phosphate [3] = variants of: B1; test: self-cleavage kobs at 640 uM GlcN6P; higher = faster cleavage; RNA array
Outline: as §1

glucosamine-6-phosphate [4] = variants of: B1; test: self-cleavage kobs at 10000 uM GlcN6P; higher = faster cleavage; RNA array
Outline: as §1

glucosamine-6-phosphate [5] = variants of: B1; test: KM; higher = weaker cofactor use; RNA array
Outline: as §1

glucosamine-6-phosphate [6] = variants of: B1; test: self-cleavage kobs at 40 uM GlcN6P; higher = faster cleavage; RNA array
Outline: as §1

glucosamine-6-phosphate [7] = variants of: B1; test: self-cleavage kobs at 160 uM GlcN6P; higher = faster cleavage; RNA array
Outline: as §1

| Variant | kcat (glucosamine-6-phosphate [1]) [s⁻¹] | self-cleavage kobs at 2500 uM GlcN6P (glucosamine-6-phosphate [2]) [s⁻¹] | self-cleavage kobs at 640 uM GlcN6P (glucosamine-6-phosphate [3]) [s⁻¹] | self-cleavage kobs at 10000 uM GlcN6P (glucosamine-6-phosphate [4]) [s⁻¹] | KM (glucosamine-6-phosphate [5]) [µM] | self-cleavage kobs at 40 uM GlcN6P (glucosamine-6-phosphate [6]) [s⁻¹] | self-cleavage kobs at 160 uM GlcN6P (glucosamine-6-phosphate [7]) [s⁻¹] |
| --- | --- | --- | --- | --- | --- | --- | --- |
| C10U C70A | 2.4e-05 ± 6e-06 | 3.1e-05 ± 1.5e-05 | – | – | – | – | – |
| G13U G40U | 7.77e-05 ± 1.2e-05 | 8.94e-05 ± 1.4e-05 | 3.55e-05 ± 9.5e-06 | 6.79e-05 ± 8.5e-06 | – | – | – |
| G37A U54C | 0.00259 ± 0.00054 | 0.00127 ± 0.00026 | 0.000375 ± 8.4e-05 | 0.00192 ± 0.00042 | 3190 ± 910 | 4.82e-05 ± 1.6e-05 | 0.000124 ± 2.7e-05 |
| G29U | 0.00859 ± 0.00066 | 0.01 ± 0.0028 | 0.00232 ± 8.4e-05 | 0.00757 ± 0.00024 | 1570 ± 140 | 0.000218 ± 3.7e-06 | 0.000677 ± 5.2e-05 |
| A6G G29U | 8.41e-05 ± 9.3e-06 | 3.54e-05 ± 1e-05 | – | 6.03e-05 ± 9e-06 | 3850 ± 1100 | – | – |
| A12C A52G | 0.000882 ± 0.00021 | 0.000359 ± 6.3e-05 | 0.000216 ± 2.4e-05 | 0.00082 ± 0.00011 | 2290 ± 880 | 2.37e-05 ± 1e-05 | 4.98e-05 ± 1.3e-05 |
| A15U C70U | 0.00472 ± 0.0018 | 0.00286 ± 0.00048 | 0.00147 ± 0.00031 | 0.00469 ± 0.00065 | 1330 ± 650 | 0.000195 ± 1.7e-05 | 0.000378 ± 4.7e-05 |
| A14G U47A | 0.00972 ± 0.0015 | 0.00943 ± 0.002 | 0.00942 ± 0.0021 | 0.00772 ± 0.0019 | 275 ± 78 | 0.00113 ± 0.00022 | 0.0041 ± 0.0011 |
| A12C G44A | 0.000291 ± 2.6e-05 | 0.000204 ± 4e-05 | 8.35e-05 ± 1.2e-05 | 0.00024 ± 3.8e-05 | 1580 ± 270 | – | – |
| A42G C71G | 0.00124 ± 0.0003 | 0.000941 ± 0.00016 | 0.000668 ± 8.8e-05 | 0.00158 ± 0.0003 | 510 ± 230 | 0.000167 ± 3.5e-05 | 0.000264 ± 4.3e-05 |
| C16U U45C | 0.00254 ± 0.00049 | 0.00224 ± 0.0007 | 0.000496 ± 0.0001 | 0.00203 ± 0.0003 | 2290 ± 700 | 4.44e-05 ± 1.1e-05 | 0.000307 ± 0.00014 |
| A42G U57C | 0.000292 ± 1.6e-05 | 0.000145 ± 2.7e-05 | 6.98e-05 ± 2e-05 | 0.000242 ± 3.4e-05 | 2270 ± 300 | – | – |
| G32A A33G | 1.05e-05 ± 2.6e-06 | – | – | – | – | < 1e-05 | – |
